Experimental data from publication PMC9984183 (Science Advances, 2023).

Target: human secretory pathway Ca2+/Mn2+ ATPase 1, isoform 1a (SPCA1a), PA-tagged (human, UniProt P98194)
Assay: SEC

human secretory pathway Ca2+/Mn2+ ATPase 1, isoform 1a (SPCA1a), PA-tagged, sequence (P98194 whole entry, canonical isoform): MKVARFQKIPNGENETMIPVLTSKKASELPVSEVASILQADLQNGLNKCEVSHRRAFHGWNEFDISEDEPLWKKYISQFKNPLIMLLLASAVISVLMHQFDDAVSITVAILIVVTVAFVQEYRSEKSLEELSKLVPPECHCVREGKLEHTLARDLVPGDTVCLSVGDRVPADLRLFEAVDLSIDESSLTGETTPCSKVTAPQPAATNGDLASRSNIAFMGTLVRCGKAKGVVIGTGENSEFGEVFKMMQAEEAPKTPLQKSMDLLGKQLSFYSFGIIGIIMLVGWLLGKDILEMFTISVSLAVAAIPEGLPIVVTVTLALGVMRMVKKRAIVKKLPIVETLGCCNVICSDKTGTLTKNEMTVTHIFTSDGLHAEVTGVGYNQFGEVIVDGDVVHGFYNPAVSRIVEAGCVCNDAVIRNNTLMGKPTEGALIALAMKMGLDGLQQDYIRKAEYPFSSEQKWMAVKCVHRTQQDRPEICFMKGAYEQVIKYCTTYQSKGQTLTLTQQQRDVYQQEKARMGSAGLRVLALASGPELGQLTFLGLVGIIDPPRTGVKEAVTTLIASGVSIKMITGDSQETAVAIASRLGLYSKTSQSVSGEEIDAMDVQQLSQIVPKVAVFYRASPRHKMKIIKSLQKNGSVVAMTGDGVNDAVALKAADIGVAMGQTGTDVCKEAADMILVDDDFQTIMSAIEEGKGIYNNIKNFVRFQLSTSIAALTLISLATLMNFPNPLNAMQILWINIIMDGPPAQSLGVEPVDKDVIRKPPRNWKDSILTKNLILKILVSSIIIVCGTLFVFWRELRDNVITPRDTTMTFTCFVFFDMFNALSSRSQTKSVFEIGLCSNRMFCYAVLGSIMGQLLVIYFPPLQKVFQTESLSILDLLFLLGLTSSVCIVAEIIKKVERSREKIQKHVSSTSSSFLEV

B1: nanobody 14 (Nb14), recombinant (VHH)
VHH: QVQLQESGGGLVQAGGSLRLSCAASGSIFGADWMGWYRQAPGKEREFVAGIGHGASTYYADSVKGRFTISRDNAKNTVYLQMNSLKPEDTAVYYCAVQYTQGWSGQYRSYDSLLYWGQGTQVTVSS
B1: binds.
